Here are results for 16 molecules from paper PMC5766498 (Nature Communications, 2018).

Details in all cases: both partners purified
In assay [1] the target is T1, Met1-linked diUb (M1-Ub2) (human, UniProt P0CG47 1-76; P0CG47 1-76).
T1 construct: ubiquitin, human, first (distal) moiety of the linear diUb; ubiquitin, human, second (proximal) moiety, its Met1 joined to Gly76 of the first; Expressed from a human M1-Ub2 gene as one chain; source: E. coli Rosetta (DE3), pET26b, purified (heat step, ResourceS, Superdex75)
Briefly: SPR; GST-fused RNF168 domains captured by immobilised anti-GST antibody on CM5 chip (1000-1500 RU); Ub2 species injected 60 s at 10 µL per min; HBS-P (10 mM HEPES-Na pH 7.4, 150 mM NaCl, 0.05% P20), 25 °C; steady-state fit, 1:1 model.

Assay [2] concerns the target T1, Met1-linked diUb (M1-Ub2). The assay can be described thus: SPR; untagged LRM1-UMI or UDM2ΔC covalently immobilised on CM5 by amine coupling (10 mM sodium acetate pH 4.0 or 4.5); Ub2 species injected; HBS-P, 25 °C; steady-state fit, 1:1 model. Background: In SPR one partner is held on a chip, and binding of the other changes the refractive index at the surface.
Assay [3] concerns the target T1, Met1-linked diUb (M1-Ub2). Briefly: pull-down; 100 µg His6-fused RNF168 on Ni-NTA beads, 15 µg Ub2 species, 25 mM Tris-HCl pH 8.0, 20 mM imidazole, 0.1% Triton X-100, 100 mM NaCl, on ice 2 h; SDS-PAGE, Coomassie (Supplementary Fig. 1a).

Changes are numbered by the printed parent chain. Numbers in names are those of the source.

B1: GST-tagged RNF168 LRM1 (L116A)-UMI (domain or fragment, human, UniProt Q8IYW5 110-166, looked up)
chain: LSKPGEARREYEEEISKVAAERRASEEEENKASEEYIQRLLAEEEEEEKRQAEKRRR
notes: source: E. coli Rosetta (DE3), purified (Glutathione Sepharose)
By Kd is commonly meant the equilibrium constant for the complex coming apart. A high value points to weaker binding. The molecule B1 yielded a Kd in assay [1] of 206 µM.

B2: GST-tagged RNF168 LRM1-UMI (residues 110-166) (domain or fragment, human, UniProt Q8IYW5 110-166, looked up)
chain: B1 chain with A7L
notes: Cloned into pCold-GST; also called N-terminal part of UDM1; source: E. coli Rosetta (DE3), purified (Glutathione Sepharose)
Molecule B2 came in with a Kd in assay [1] of 231 µM.

B3: GST-tagged RNF168 LRM1-UMI (S142A) (domain or fragment, human, UniProt Q8IYW5 110-166, looked up)
chain: B1 chain with A7L, S33A
notes: as for B1
In assay [1], B3 came in with a Kd of 965 µM.

B4: untagged RNF168 LRM1-UMI (residues 110-166) (domain or fragment, human, UniProt Q8IYW5 110-166, looked up)
chain: B1 chain with A7L
notes: Printed as untagged; also called LRM1–UMI (untagged); source: E. coli Rosetta (DE3), purified
With B4, in assay [2], the Kd is 200 µM.

B5: GST-tagged RNF168 LRM1-UMI (L149A) (domain or fragment, human, UniProt Q8IYW5 110-166, looked up)
chain: B1 chain with A7L, L40A
notes: as for B1
Regarding B5, binding in assay [1] was characterised by a dissociation constant (Kd) of 1150 µM.

B6: GST-tagged RNF168 LRM1 (Y120A)-UMI (domain or fragment, human, UniProt Q8IYW5 110-166, looked up)
chain: B1 chain with A7L, Y11A
notes: as for B1
Molecule B6 yielded a Kd in assay [1] of 236 µM.

B7: GST-tagged RNF168 UDM2 (residues 419-487) (domain or fragment, human, UniProt Q8IYW5 419-487, looked up)
chain: EETEINFTQKLIDLEHLLFERHKQEEQDRLLALQLQKEVDKEQMVPNRQKGSPDEYHLRATSSPPDKVL
notes: RNF168, human, residues 419-487 (UDM2); source: E. coli Rosetta (DE3), purified (Glutathione Sepharose)
For B7, the Kd in assay [1] is 238 µM.

B8: GST-tagged RNF168 UMI (residues 134-166) (domain or fragment, human, UniProt Q8IYW5 134-166, looked up)
chain: SEEEENKASEEYIQRLLAEEEEEEKRQAEKRRR
notes: Cloned into pCold-GST; source: E. coli Rosetta (DE3), purified (Glutathione Sepharose)
For the molecule B8, in assay [1], binding was put at a Kd of 306 µM.

B9: His6-fused RNF168 UMI-MIU1 (residues 134-188) (domain or fragment, human, UniProt Q8IYW5 134-188, looked up)
chain: SEEEENKASEEYIQRLLAEEEEEEKRQAEKRRRAMEEQLKSDEELARKLSIDINN
notes: source: E. coli, purified (Ni-NTA, then as UDM2ΔC)
In the case of B9, in assay [3], the binding result is “binds”.

B10: GST-tagged RNF168 UDM2ΔC (residues 419-462) (domain or fragment, human, UniProt Q8IYW5 419-462, looked up)
chain: EETEINFTQKLIDLEHLLFERHKQEEQDRLLALQLQKEVDKEQM
notes: RNF168, human, residues 419-462 (UDM2ΔC); also called UAD–MIU2; source: E. coli Rosetta (DE3), purified (Glutathione Sepharose)
Molecule B10 registered a Kd in assay [1] of 221 µM.

B11: GST-tagged RNF168 UDM2ΔC (E433R) (domain or fragment, human, UniProt Q8IYW5 419-462, looked up)
chain: B10 chain with E15R
notes: RNF168, human, residues 419-462 (UDM2ΔC) with E433R; source: E. coli Rosetta (DE3), purified (Glutathione Sepharose)
Molecule B11 displayed a Kd in assay [1] of 214 µM.

B12: GST-tagged RNF168 UDM2ΔC (L436T) (domain or fragment, human, UniProt Q8IYW5 419-462, looked up)
chain: B10 chain with L18T
notes: RNF168, human, residues 419-462 (UDM2ΔC) with L436T; source: E. coli Rosetta (DE3), purified (Glutathione Sepharose)
Turning to B12, the affinity in assay [1], expressed as Kd, was 160 µM.

B13: untagged RNF168 UDM2ΔC (residues 419-462) (domain or fragment, human, UniProt Q8IYW5 419-462, looked up)
chain: B10 chain
notes: RNF168, human, residues 419-462 (UDM2ΔC); also called UDM2ΔC (untagged); UAD–MIU2; source: E. coli Rosetta (DE3), purified (Glutathione Sepharose, HRV3C cleavage, ResourceQ, Superdex75)
In assay [2], B13 displayed a Kd of 145 µM.

B14: GST-tagged RNF168 UDM2ΔC (R439A) (domain or fragment, human, UniProt Q8IYW5 419-462, looked up)
chain: B10 chain with R21A
notes: RNF168, human, residues 419-462 (UDM2ΔC) with R439A; source: E. coli Rosetta (DE3), purified (Glutathione Sepharose)
Turning to B14, the affinity in assay [1], expressed as Kd, was 495 µM.

B15: GST-tagged RNF168 MIU1 (residues 161-194) (domain or fragment, human, UniProt Q8IYW5 161-194, looked up)
chain: AEKRRRAMEEQLKSDEELARKLSIDINNFCEGSI
notes: RNF168, human, residues 161-194 (MIU1 alone); This construct is not in the methods' list of constructs; its limits stand in the results only; also called MIU1 alone; source: E. coli Rosetta (DE3), purified (Glutathione Sepharose)
Regarding B15, in assay [1], binding was characterised by a dissociation constant (Kd) of 233 µM.

B16: GST-tagged RNF168 MIU2 (residues 436-462) (domain or fragment, human, UniProt Q8IYW5 436-462, looked up)
chain: LFERHKQEEQDRLLALQLQKEVDKEQM
notes: RNF168, human, residues 436-462 (MIU2); source: E. coli Rosetta (DE3), purified (Glutathione Sepharose)
Regarding B16, the Kd in assay [1] was determined as 235 µM.
